Holding throughout (assay): SPR
On the technique in general: SPR reads the build-up and loss of mass on a sensor chip optically.

The target of one assay is T1, hVEGF-A Y21A (human, UniProt P15692 34-135).
T1 chain: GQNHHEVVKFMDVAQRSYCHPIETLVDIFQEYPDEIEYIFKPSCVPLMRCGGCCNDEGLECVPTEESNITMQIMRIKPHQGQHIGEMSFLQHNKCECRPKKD

A further assay concerns the target T2, hVEGF-A K48A (human, UniProt P15692 34-135).
T2 chain: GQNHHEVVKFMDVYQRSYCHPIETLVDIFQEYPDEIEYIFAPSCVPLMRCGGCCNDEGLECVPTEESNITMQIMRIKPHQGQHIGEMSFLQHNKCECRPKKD

The target in another assay is T3, hVEGF-A Q89A (human, UniProt P15692 34-135).
T3 chain: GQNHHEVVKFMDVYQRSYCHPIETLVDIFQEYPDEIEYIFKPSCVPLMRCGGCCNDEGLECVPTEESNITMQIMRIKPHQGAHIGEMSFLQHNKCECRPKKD

The target in assay [1] is T4, human VEGF-A (human), P15692.
T4 chain: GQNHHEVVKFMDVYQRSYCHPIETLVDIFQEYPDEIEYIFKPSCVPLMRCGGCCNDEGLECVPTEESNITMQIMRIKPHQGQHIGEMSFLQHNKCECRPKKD

Take GCDVMQPYWGCKQDSDCLAGCVCHWYNSCG (designed binder, also called EM63) [VEGF_CKP9.63]: the Kd (as a rule, the free concentration of one partner at which half of the binding sites on the other are occupied at equilibrium, for simple one-to-one binding) worked out at 585 nM with hVEGF-A Y21A, 28.4 nM with hVEGF-A K48A and 2000 nM in the assay with hVEGF-A Q89A.

Consider GCDVMQPYWGCGPDIDCLAGCVCHWYNSCG (designed binder, also called L2.9.63.12) [VEGF_CKP9.63.12], for which the Kd with hVEGF-A Y21A was 9.84 nM; with hVEGF-A K48A it was 0.33 nM; with hVEGF-A Q89A, 36.5 nM.

Consider GCNIMLPFWGCGRDFECLAGCVCQYYQSCG (designed binder) [VEGF_CKP9.54.90], for which the Kd in the assay with hVEGF-A Y21A was determined as 3.5 nM; with hVEGF-A K48A, 0.19 nM; in the assay with hVEGF-A Q89A, 8.8 nM.

As to GCNIMLPFWGCKQDSDCLAGCVCQYYQSCG (designed binder, also called EM54) [VEGF_CKP9.54], the results for the dissociation constant (Kd) in the assay with hVEGF-A Y21A, with hVEGF-A K48A and with hVEGF-A Q89A were 317 nM, 22 nM and 1880 nM, respectively.

GCNIMLPFWGCGRDFECLAGCVCQYYQSCG (designed binder, modifications not checked) [VEGF_CKP9.54.90-Alkyn] registered a Kd in assay [1] of 0.49 nM. This lies in the sub-nanomolar range.

(Values after patent US20230174596A1 (published 2023).)
